Consider four substances from patent publication US20040091487A1.

Holding throughout (assay): cell-based or functional assay
The target in assay [1] is HIV-1 IN H12Y within Gag-Pol (pCMV-H12Y) (HIV-1).
Assay [2] concerns the target HIV-1 IN within Gag-Pol (Gag-Pol polyprotein encoded by pCMVDR8.2) (HIV-1).
In assay [3] the target is HIV-1 IN within Gag-Pol of the molecular clone HIV-1R3B (HIV-1).

The substance “HA-S6 (HA-INI1 aa 183-294) (from UniProt Q12824 183-294)” yielded a decrease in the level of H12Y virion associated p24 production in assay [1] of 10 fold. In assay [2], the % inhibition was found to be 100%, the P24 of culture supernatants is 0 ng/mL and the inhibition of p24 production was determined as 80000 fold. In assay [3], this substance showed a % inhibition of more than 99.7% and a p24 of culture supernatants of 0.69 ng/mL.
For “HA-INI1 aa 1-245 (clone 27B) (from UniProt Q12824 1-245)”, in assay [2], the % inhibition is 16% and the P24 of culture supernatants came out at 95.6 ng/mL.
HA-E3 (from UniProt Q12824 183-294): in assay [2], the decrease in the viral titers as compared to the control turned out to be 2 fold and the inhibition of p24 production was 2 fold.
In assay [2], “HA-INI1 aa 141-385 (clone 20.2) (from UniProt Q12824 141-385)” yielded a % inhibition of 69% and a P24 of culture supernatants of 35.4 ng/mL.

What is called % inhibition is how much of the control response was suppressed. A higher % inhibition goes with a strong effect.
